In publication PMC12095580, “Wnt signalosome assembly is governed by conformational flexibility of Axin and by the AP2 clathrin adaptor” (Nature Communications, 2025):
Each block holds one molecule with its values, some of them ahead of it. Non-standard residues stand in square brackets, D forms with d. No end group written: not given here. pS = N[C@@H](COP(=O)(O)O)C(=O)O; Lip = Lipoyl solubility tag; His6x = hexahistidine tag

How the values were obtained:
[1] = target: GSK3β-HA (UniProt P49841); experiment: coIP (GFP IP, α-HA blot densitometry)
[2] = target: FLAG-Axin1 (UniProt O15169); experiment: coIP (GFP IP, α-FLAG blot densitometry); conditions: HEK293T cells, co-expressed with wt GSK3β-HA
[3] = target: His6x-Lip-L2_(LRP6) (LRP6_(1539-1613)) (UniProt O75581); experiment: ITC; binding of GSK3 or Axin to the CPPSPYT element of the distal LRP6 ctail; constructs and concentrations not told
[4] = target: Axin1 LIRα, 345-361 (UniProt O15169); experiment: ITC; conditions: reference: unphosphorylated 43mer peptide; sites S317,S321,S325
[5] = target: LRP6-GFP (UniProt O75581); experiment: coIP (GFP IP, α-Axin1 blot densitometry); conditions: co-expressed with wt GSK3β-HA
[6] = target: LRP6-GFP (UniProt O75581); experiment: coIP (GFP IP, α-HA blot densitometry)
[7] = target: His6x-Lip-A5_(Axin) (Axin_(308-366)) (UniProt O15169); experiment: ITC; 50 μM Axin fragment or GSK3β titrated with 500 μM Lip-L1_(LRP6); 25 °C, 25 mM sodium phosphate pH 6.7, 150 mM NaCl; one set of binding sites; apparent KD assuming 1:1
[8] = target: T1, His6x-Lip-L1_(LRP6) (LRP6_(1463-1538) bearing YYYF > A) (UniProt O75581 1463-1538, YYYF > A (Y1517; position worked out from S1516 and S1521, p-0048) | YYYF > A …); experiment: ITC
T1 sequence: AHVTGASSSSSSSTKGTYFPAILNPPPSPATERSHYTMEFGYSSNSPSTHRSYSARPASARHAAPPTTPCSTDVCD

[9] = target: T2, Axin Lip-LIRα (UniProt O15169 345-361); experiment: ITC; phosphorylated 43PPP
T2 chain: PYRIRKQHRREMQESVQ

[10] = target: T3, RKR mutant Axin Lip-LIRα (UniProt O15169 345-361, RKR > A (R347) | RKR > A (K350) | RKR > A (R354)); experiment: ITC; phosphorylated 43PPP
T3 chain: PYAIRAQHRAEMQESVQ

[11] = target: His6x-AP2μ (YxxΦ-binding domain of rat AP2μ) (rat); experiment: ITC; 114 or 100 μM His6x-AP2μ titrated with 2 mM (SYRHFA) or 1.74 mM (…) His6x-Lip-YxxΦ peptide; 25 °C, 50 mM Tris-HCl pH 7.4, 300 mM NaCl
[12] = target: T4, GSK3β-K85R (recombinant, full-length) (UniProt P49841 1-420, K85R); experiment: NMR titration; BEST-TROSY peak height attenuation (bleaching): 80 μM 15N-labelled protein +/- 80 μM unlabelled partner; 25 mM sodium phosphate pH 6.7, 150 mM NaCl, 293 K; conditions: both partners purified
T4 construct: glycogen synthase kinase 3β, catalytically dead; also called catalytically-dead GSK3; source: E. coli BL21-CodonPlus(DE3)-RIL, purified (glutathione agarose, 3C cleavage, Superdex 200); not shown: GST, N-terminal, cleaved

[13] = target: T5, His6x-Lip-L1_(LRP6) (LRP6_(1463-1538) bearing YYYF > A) (UniProt O75581 1463-1538, YYYF > A (Y1517; position worked out from S1516 and S1521, p-0048) | YYYF > A …, Lipoyl solubility tag omitted. Mutated positions are not given; inferred because LIRup (308-344) should contain exactly five Asp and one Glu, in the order D-E-D4, and the text says all …); experiment: ITC
T5 sequence: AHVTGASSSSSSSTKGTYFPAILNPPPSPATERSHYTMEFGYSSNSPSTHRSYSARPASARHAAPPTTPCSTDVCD

[14] = target: T6, phosphorylated Axin LIRup peptide (43PPP, Axin_(308-351) including pS317, pS321, pS325) (UniProt O15169 308-351, phosphoserine at 317, 321 and 325); experiment: ITC; 50 μM synthetic 43mer or 43PPP peptide in the cell titrated with 500 μM wt or RKR mutant Axin Lip-LIRα; 25 °C, 25 mM sodium phosphate pH 6.7, 150 mM NaCl; conditions: both partners purified
T6 construct: Axin1 LIRup with 7 residues of LIRα; A308-Q351 counts 44 residues though the peptide is called 43PPP; source: synthetic peptide, bought: Biomatic
T6 peptide (looked up): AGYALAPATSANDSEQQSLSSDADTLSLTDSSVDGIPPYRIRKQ

[15] = HEK293T cells, co-expressed with wt FLAG-Axin1

Chain of LRP6-GFP (O75581 20-1613): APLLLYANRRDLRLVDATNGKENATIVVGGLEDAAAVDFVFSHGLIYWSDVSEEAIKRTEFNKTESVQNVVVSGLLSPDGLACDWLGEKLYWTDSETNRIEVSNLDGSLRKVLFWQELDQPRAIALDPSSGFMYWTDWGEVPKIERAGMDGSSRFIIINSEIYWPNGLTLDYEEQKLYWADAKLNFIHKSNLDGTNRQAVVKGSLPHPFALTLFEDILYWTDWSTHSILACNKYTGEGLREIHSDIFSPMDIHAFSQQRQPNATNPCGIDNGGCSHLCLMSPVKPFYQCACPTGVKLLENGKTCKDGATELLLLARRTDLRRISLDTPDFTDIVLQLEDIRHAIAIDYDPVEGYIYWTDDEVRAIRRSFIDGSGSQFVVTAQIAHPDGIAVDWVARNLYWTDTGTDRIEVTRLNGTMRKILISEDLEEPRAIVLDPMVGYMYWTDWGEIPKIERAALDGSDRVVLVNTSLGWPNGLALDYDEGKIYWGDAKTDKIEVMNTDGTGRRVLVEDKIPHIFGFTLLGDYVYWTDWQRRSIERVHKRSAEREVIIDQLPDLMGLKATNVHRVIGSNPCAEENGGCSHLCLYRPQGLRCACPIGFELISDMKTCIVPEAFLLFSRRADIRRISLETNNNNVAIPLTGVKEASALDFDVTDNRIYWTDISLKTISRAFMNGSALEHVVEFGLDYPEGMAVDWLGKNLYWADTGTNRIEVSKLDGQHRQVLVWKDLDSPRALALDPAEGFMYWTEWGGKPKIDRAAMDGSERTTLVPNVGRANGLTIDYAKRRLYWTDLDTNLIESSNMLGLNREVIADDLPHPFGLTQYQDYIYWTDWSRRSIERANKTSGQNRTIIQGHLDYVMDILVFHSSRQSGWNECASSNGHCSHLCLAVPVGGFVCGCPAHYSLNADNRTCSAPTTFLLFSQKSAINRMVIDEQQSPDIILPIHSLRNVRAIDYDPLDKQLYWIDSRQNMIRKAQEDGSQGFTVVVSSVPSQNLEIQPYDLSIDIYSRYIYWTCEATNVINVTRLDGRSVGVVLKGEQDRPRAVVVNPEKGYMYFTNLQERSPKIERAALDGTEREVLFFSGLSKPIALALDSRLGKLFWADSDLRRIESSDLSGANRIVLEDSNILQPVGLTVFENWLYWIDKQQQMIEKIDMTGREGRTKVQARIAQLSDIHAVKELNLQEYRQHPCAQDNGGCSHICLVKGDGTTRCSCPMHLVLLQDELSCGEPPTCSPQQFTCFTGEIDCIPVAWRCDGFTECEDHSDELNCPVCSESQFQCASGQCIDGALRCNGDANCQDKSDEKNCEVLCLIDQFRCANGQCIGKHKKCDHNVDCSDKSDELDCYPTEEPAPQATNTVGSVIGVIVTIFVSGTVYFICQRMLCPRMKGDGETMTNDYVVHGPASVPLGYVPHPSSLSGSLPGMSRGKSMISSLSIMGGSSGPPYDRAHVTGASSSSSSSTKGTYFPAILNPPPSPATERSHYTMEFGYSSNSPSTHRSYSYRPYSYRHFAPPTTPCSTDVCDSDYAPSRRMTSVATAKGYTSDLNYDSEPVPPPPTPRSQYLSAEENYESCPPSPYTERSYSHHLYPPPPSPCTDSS
Chain of His6x-Lip-L2_(LRP6) (LRP6_(1539-1613)) (O75581 1539-1613): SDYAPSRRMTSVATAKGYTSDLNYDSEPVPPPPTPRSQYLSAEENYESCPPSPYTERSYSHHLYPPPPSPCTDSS

Molecule: GSK3β (recombinant, full-length wt) (from UniProt P49841 1-420) (enzyme)
- Kd [3]: > 500 µM

Molecule: Axin1 LIRup peptide, 308-351 (from UniProt O15169) 43PPP peptide (pS317, pS321, pS325)
- binding against the reference [4]: stronger

Molecule: FLAG-Axin1 (from UniProt O15169) S493D; S497D
- ratio to parent [5]: 0.56

Molecule: FLAG-Axin1 (from UniProt O15169) S493A; S497A
- ratio to parent [5]: 1.57

B2: phosphorylated Axin LIRup peptide (43PPP, Axin_(308-351) including pS317, pS321, pS325) (peptide)
peptide: AGYALAPAT[pS]AND[pS]EQQ[pS]LSSDADTLSLTDSSVDGIPPYRIRKQ
- Kd [9]: 47.9 µM
- Kd [10]: 448 µM

B3: His6x-Lip-SYRHFA peptide (peptide)
chain: {His6x-Lip}-SYRHFA
- Kd [11]: 16.2 µM

B4: His6x-Lip-A3_(Axin) (Axin_(308-426)) (domain or fragment, UniProt O15169 308-426, looked up)
chain: AGYALAPATSANDSEQQSLSSDADTLSLTDSSVDGIPPYRIRKQHRREMQESVQVNGRVPLPHIPRTYRVPKEVRVEPQKFAEELIHRLEAVQRTREAEEKLEERLKRVRMEEEGEDGD
notes: Axin1 fragment with LIR, PRTxR motif and GIR; source: E. coli BL21-CodonPlus(DE3)-RIL, purified (Ni-NTA, Superdex 75); 15N-labelled where observed by NMR; not shown: Lipoyl solubility tag (Lip), N-terminal, kept
- Kd [3]: > 500 µM
- binding result [12]: binds

B5: His6x-Lip-… peptide (peptide)
chain: {His6x-Lip}-SYRPYSYRHFA
- Kd [11]: 8 µM

B6: Lip-DED4 > A (in Lip-A5_(Axin)) (domain or fragment)
chain: AGYALAPATSANASAQQSLSSAAATLSLTASSVAGIPPYRIRKQHRREMQESVQVNGRV
- Kd [13]: 118 µM

Second part, the molecule after the results:

- ratio to parent [1, 15]: 0.07
- ratio to parent ([1]; co-expressed with FLAG-Axin1 S1>A (the wt = 1.00 lane has wt Axin)): 0.01
- ratio to parent [2]: 0.11
Molecule: LRP6-GFP (from UniProt O75581) m10 (PPPSPxS>PPPAPxA, motifs A-E)

- ratio to parent [6, 15]: 0.05
- ratio to parent ([6]; co-expressed with FLAG-Axin1 S1>A (the wt = 1.00 lane has wt Axin; wt GSK3β-HA with Axin S1>A reads 2.98)): 0.03
Molecule: GSK3β-HA (from UniProt P49841) VE>GR

- Kd [7]: 1.37 µM
Molecule: His6x-Lip-L1_(LRP6) (LRP6_(1463-1538) bearing YYYF > A) (from UniProt O75581 1463-1538) (domain or fragment)

- Kd [8]: 5.15 µM
B1: Lip-RKR > A (in Lip-A5_(Axin)) (domain or fragment)
chain: AGYALAPATSANDSEQQSLSSDADTLSLTDSSVDGIPPYAIRAQHRAEMQESVQVNGRV

- fold reduction of binding against wt Lip-LIRα [14]: ~10 x
B7: RKR mutant Axin Lip-LIRα (domain or fragment, UniProt O15169 345-361, looked up)
chain: PYAIRAQHRAEMQESVQ
notes: Axin1 LIRα with R347, K350, R354 changed to alanine; also called Lip-LIRα RKR > A; not shown: Lipoyl solubility tag (Lip), N-terminal, kept
